We go through 1 protein from article PMC9790621.

Substrate in data set [1]: Nc1nc2c(ncn2[C@@H]2O[C@H](COP(=O)(O)O)[C@@H](O)[C@H]2O)c(=O)[nH]1
Put plainly: purified protein. Conditions: pH 7.8; 25.0 °C.

Substrate in data set [2]: NC(=O)C1=CN([C@@H]2O[C@H](COP(=O)(O)OP(=O)(O)OC[C@H]3O[C@@H](n4cnc5c(N)ncnc54)[C@H](OP(=O)(O)O)[C@@H]3O)[C@@H](O)[C@H]2O)C=CC1
Put plainly: purified protein. The note with it: pH 7.8; 25.0 °C.

B1: Mtb GMPR (Mtb GuaB1) (Mycobacterium tuberculosis H37Rv) (protein)
chain: MRFLDGHPPGYDLTYNDVFIVPNRSEVASRFDVDLSTADGSGTTIPVVVANMTAVAGRRMAETVARRGGIVILPQDLPIPAVKQTVAFVKSRDLVLDTPVTLAPDDSVSDAMALIHKRAHGVAVVILEGRPIGLVRESSCLGVDRFTRVRDIAVTDYVTAPAGTEPRKIFDLLEHAPVDVAVLTDADGTLAGVLSRTGAIRAGIYTPATDSAGRLRIGAAVGINGDVGAKARALAEAGVDVLVIDTAHGHQVKTLDAIKAVSALDLGLPLAAGNVVSAEGTRDLLKAGANVVKVGVGPGAMCTTRMMTGVGRPQFSAVLECASAARQLGGHIWADGGIRHPRDVALALAAGASNVMIGSWFAGTYESPGDLMRDRDDQPYKESYGMASKRAVVARTGADNPFDRARKALFEEGISTSRMGLDPDRGGVEDLIDHITSGVRSTCTYVGASNLAELHERAVVGVQSGAGFAEGHPLPAGW
As to B1, the K0.5 in data set [1] was 10.5 ± 1.17 µM; in data set [2] it was 63 ± 7 µM.
